Results from the supplement of paper PMC11246515.
± gives the standard deviation of the averaged measurements.

Assay: total protein half-life in vivo (active degradation + dilution); higher = more stable protein
[1] = E. coli NCM3722 delta-clpP delta-lon delta-hslV, growth: N-lim chemostat, doubling time 6 h
[2] = E. coli NCM3722 delta-hslV, growth: N-lim chemostat, doubling time 6 h
[3] = E. coli NCM3722 delta-lon, growth: N-lim chemostat, doubling time 6 h
[4] = wild type E. coli NCM3722, growth: C-lim chemostat, doubling time 3 h
[5] = wild type E. coli NCM3722, growth: C-lim chemostat, doubling time 6 h
[6] = wild type E. coli NCM3722, growth: C-lim chemostat, doubling time 12 h
[7] = wild type E. coli NCM3722, growth: N-lim chemostat, doubling time 6 h
[8] = wild type E. coli NCM3722, growth: N-lim chemostat, doubling time 12 h
[9] = wild type E. coli NCM3722, growth: P-lim chemostat, doubling time 6 h
[10] = wild type E. coli NCM3722, growth: P-lim chemostat, doubling time 12 h
[11] = E. coli NCM3722 delta-clpP, growth: N-lim chemostat, doubling time 6 h
[12] = E. coli NCM3722 delta-smpB, growth: N-lim chemostat, doubling time 6 h

Sequence | total protein half-life in vivo [1] [h] | total protein half-life in vivo [2] [h] | total protein half-life in vivo [3] [h] | total protein half-life in vivo [4] [h] | total protein half-life in vivo [5] [h] | total protein half-life in vivo [6] [h] | total protein half-life in vivo [7] [h] | total protein half-life in vivo [8] [h] | total protein half-life in vivo [9] [h] | total protein half-life in vivo [10] [h] | total protein half-life in vivo [11] [h] | total protein half-life in vivo [12] [h]
MIREAQRSELPAILELWLESTTWGHPFIKANYWRDCIPLVRDAYLANAQNWVWEEDGKLLGFVSIMEGRFLAAMFVAPKAVRRGIGKALMQYVQQRHPHLMLEVYQKNQPAINFYQAQGFHIVDCAWQDETQLPTWIMSWPVVQTL | 5.19 | 2.72 | 3.34 ± 0.79 | > 4 | 3.55 | 4.76 | 2.33 ± 0.12 | 3.08 ± 0.13 | 4.08 | 6.74 ± 0.19 | – | –
MIRKSATGVIVALAVIWGGGTWYTGTQIQPGVEKFIKDFNDAKKKGEHAYDMTLSYQNFDKGFFNSRFQMQMTFDNGAPDLNIKPGQKVVFDVDVEHGPLPITMLMHGNVIPALAAAKVNLVNNELTQPLFIAAKNKSPVEATLRFAFGGSFSTTLDVAPAEYGKFSFGEGQFTFNGDGSSLSNLDIEGKVEDIVLQLSPMNKVTAKSFTIDSLARLEEKKFPVGESESKFNQINIINHGEDVAQIDAFVAKTRLDRVKDKDYINVNLTYELDKLTKGNQQLGSGEWSLIAESIDPSAVRQFIIQYNIAMQKQLAAHPELANDEVALQEVNAALFKEYLPLLQKSEPTIKQPVRWKNALGELNANLDISIADPAKSSSSTNKDIKSLNFDVKLPLNVVTETAKQLNLSEGMDAEKAQKQADKQISGMMTLGQMFQLITIDNNTASLQLRYTPGKVVFNGQEMSEEEFMSRAGRFVH | – | 5.74 | 6.55 | 2.57 | – | – | 6.18 | – | 5.4 | – | – | –
MIRLSEQSPLGTGRHRKCYAHPEDAQRCIKIVYHRGDGGDKEIRRELKYYAHLGRRLKDWSGIPRYHGTVETDCGTGYVYDVIADFDGKPSITLTEFAEQCRYEEDIAQLRQLLKQLKRYLQDNRIVTMSLKPQNILCHRISESEVIPVVCDNIGESTLIPLATWSKWCCLRKQERLWKRFIAQPALAIALQKDLQPRESKTLALTSREA | 3.47 | – | – | 3.22 | 7.68 | 10.7 | – | – | – | – | – | –
MIRNVLLAFMICSGMTLLGGCSSVMSHTGGKEGTYPGTRASATMIGDDETNWGTKSLAILDMPFTAVMDTLLLPWDVFRKDSSVRSRVEKSEANAQATNAVIPPARMPDN [P0ADM4] | 5.58 ± 0.24 | 5.46 ± 0.49 | 5.9 ± 0.34 | 2.6 ± 0.12 | 4.71 ± 0.37 | 8.87 ± 1.3 | 5.84 ± 0.094 | 11 ± 1.4 | 4.8 ± 0.24 | 11.1 ± 0.31 | 6 ± 0.66 | 4.43 ± 0.12
MIRQRRRALTPEQQQEMGQQAATRMMTYPPVVMAHTVAVFLSFDGELDTQPLIEQLWRAGKRVYLPVLHPFSAGNLLFLNYHPQSELVMNRLKIHEPKLDVRDVLPLSRLDVLITPLVAFDEYGQRLGMGGGFYDRTLQNWQHYKTQPVGYAHDCQLVEKLPVEEWDIPLPAVVTPSKVWEW [P0AC28] | 4.93 ± 0.7 | – | 2.6 ± 0.54 | 2.75 ± 0.068 | 4.81 ± 0.41 | 7.66 ± 1.6 | 2.59 | 4.35 | 3.85 ± 0.24 | 7.8 ± 0.34 | 3.88 ± 0.18 | 2.58
MISANRPIINLDLDLLRTFVAVADLNTFAAAAAAVCRTQSAVSQQMQRLEQLVGKELFARHGRNKLLTEHGIQLLGYARKILRFNDEACSSLMFSNLQGVLTIGASDESADTILPFLLNRVSSVYPKLALDVRVKRNAYMAEMLESQEVDLMVTTHRPSAFKALNLRTSPTHWYCAAEYILQKGEPIPLVLLDDPSPFRDMVLATLNKADIPWRLAYVASTLPAVRAAVKAGLGVTARPVEMMSPDLRVLSGVDGLPPLPDTEYLLCYDPSSNNELAQVIYQAMESYHNPWQYSPMSAPEGDDSLLIERDIE | – | 2.546 ± 0.023 | 3.25 | 2.45 ± 0.064 | 4.7 ± 0.26 | 7.62 ± 0.41 | 3.28 ± 1.1 | 3.66 ± 0.051 | 3.43 ± 0.079 | 6.34 ± 0.77 | 5.56 ± 0.33 | 2.713 ± 0.022
MISDSKLLASAAWDAQSLNELKAKAGEDPAANIRPVARQVEGMFVQMMLKSMRDALPKDGLFSSEHTRLYTSMYDQQIAQQMTAGKGLGLAEMMVKQMTPEQPLPEESTPAAPMKFPLETVVRYQNQALSQLVQKAVPRNYDDSLPGDSKAFLAQLSLPAQLASQQSGVPHHLILAQAALESGWGQRQIRRENGEPSYNLFGVKASGNWKGPVTEITTTEYENGEAKKVKAKFRVYSSYLEALSDYVGLLTRNPRYAAVTTAASAEQGAQALQDAGYATDPHYARKLTNMIQQMKSISDKVSKTYSMNIDNLF | – | – | – | 0.391 | – | – | – | – | – | – | – | –
MISRVTEALSKVKGSMGSHERHALPGVIGDDLLRFGKLPLCLFICIILTAVTVVTTAHHTRLLTAQREQLVLERDALDIEWRNLILEENALGDHSRVERIATEKLQMQHVDPSQENIVVQK [P0AEN4] | 4.86 ± 0.82 | 2.91 | 4.25 ± 0.28 | 2.6 ± 0.074 | 3.85 | 7.71 ± 1.4 | 4.3 ± 0.56 | 5.19 ± 0.39 | 4.04 ± 0.16 | 5.75 ± 1.9 | 3.72 ± 0.074 | 3.44 ± 0.1
MISSLWIAKTGLDAQQTNMDVIANNLANVSTNGFKRQRAVFEDLLYQTIRQPGAQSSEQTTLPSGLQIGTGVRPVATERLHSQGNLSQTNNSKDVAIKGQGFFQVMLPDGSSAYTRDGSFQVDQNGQLVTAGGFQVQPAITIPANALSITIGRDGVVSVTQQGQAAPVQVGQLNLTTFMNDTGLESIGENLYTETQSSGAPNESTPGLNGAGLLYQGYVETSNVNVAEELVNMIQVQRAYEINSKAVSTTDQMLQKLTQL [P0ABX5] | 4.91 ± 2.6 | – | – | 1.53 ± 0.27 | 5.1 ± 3.6 | 6.45 ± 1.9 | – | – | – | – | > 8 | –
MISVFDIFKIGIGPSSSHTVGPMKAGKQFTDDLIARNLLKDVTRVVVDVYGSLSLTGKGHHTDIAIIMGLAGNLPDTVDIDSIPSFIQDVNTHGRLMLANGQHEVEFPVDQCMNFHADNLSLHENGMRITALAGDKVVYSQTYYSIGGGFIVDEEHFGQQDSAPVEVPYPYSSAADLQKHCQETGLSLSGLMMKNELALHSKEELEQHLANVWEVMRGGIERGISTEGVLPGKLRVPRRAAALRRMLVSQDKTTTDPMAVVDWINMFALAVNEENAAGGRVVTAPTNGACGIIPAVLAYYDKFIREVNANSLARYLLVASAIGSLYKMNASISGAEVGCQGEVGVACSMAAAGLAELLGASPAQVCIAAEIAMEHNLGLTCDPVAGQVQVPCIERNAIAAVKAVNAARMALRRTSEPRVCLDKVIETMYETGKDMNAKYRETSRGGLAMKIVACD | 3.9 | – | – | – | – | – | – | – | – | – | – | –
